From PMC10366140

Tested on: apRAD51C-CTD-1 R258H (Alvinella pompejana)
Experiment: fluorescence polarization
Conditions: FP: 20 mM HEPES pH 8, 80 mM NaCl, 2.5 mM ATP, 2.5 mM MgCl2, 1 mM DTT, 0.1 mg/mL BSA, 10 nM DNA, 37 C 20 min, EMSA: 20 mM Tris pH 8.0, 150 mM KCl, 4 C 15 min

Sequence TTTTTTTTTTTTTTTTTTTT [poly-20dT] has a Kd of 36.5 µM.
